B1: CdsV C-terminal region (residues 345-710) from Chlamydia pneumoniae (domain or fragment)
chain: ASTTVGAAGDGAATVGDNPDDYSLTLPVILELGKDLSKLIQHKTKSGQSFVDDMIPKMRQALYQDIGIRYPGIHVRTDSPSLEGYDYMILLNEVPYVRGKIPPHHVLTNEVEDNLSRYNLPFITYKNAAGLPSAWVSEDAKAILEKAAIKYWTPLEVIILHLSYFFHKSSQEFLGIQEVRSMIEFMERSFPDLVKEVTRLIPLQKLTEIFKRLVQEQISIKDLRTILESLSEWAQTEKDTVLLTEYVRSSLKLYISFKFSQGQSAISVYLLDPEIEEMIRGAIKQTSAGSYLALDPDSVNLILKSMRNTITPTPAGGQPPVLLTAIDVRRYVRKLIETEFPDIAVISYQEILPEIRIQPLGRIQIF
notes: CdsV (export gate protein, SctV family), Chlamydia pneumoniae, residues 345-710, the cytoplasmic C-terminal region; Cloned into pET28 with the vector's N-terminal hexa-His tag and thrombin cleavage site; Homo-nonameric ring; also called WT CdsVc; soluble export gate; source: nonameric peak fractions pooled
B2: CdsO residues 25-110 from Chlamydia pneumoniae (domain or fragment)
chain: KEKRRLLEIEQEKLREKEAERDKVKNHYMQKIQQLRDLLDEGTTSDAVLQIKSYIKVVAVQLSEEEEKVNKQKEVVLAASKELEKA
notes: CdsO (central stalk protein of the T3SS ATPase, SctO family), Chlamydia pneumoniae, residues 25-110 of the 168 residues of full-length CdsO; Cloned into pET28 as CdsV; Called monomeric in the ITC methods; also called CdsO_(25-110); central stalk protein

Legend:
[1] = molecular target: the molecule itself; experiment: crystal structure; CdsVC alone; hanging drop, 100 mM HEPES pH 6.75, 5% PEG-6000, 21°C; refined to 2.8 Å
[2] = molecular target: B1; experiment: crystal structure; CdsVC mixed with ~10% molar excess of CdsO_(25-110); 100 mM Bis-Tris pH 6.0, 4% PEG 3350, 200 mM ammonium acetate; refined to 4.6 Å; details: both partners purified
[3] = molecular target: B1; experiment: ITC; monomeric CdsO_(25-110) (2.2 mM) titrated into nonameric CdsVc (15.0 uM) or nonameric CdsVc L638A/D639A (12.1 uM); 20°C; 10 mM HEPES pH 7.5, 500 mM NaCl; 24 x 2 uL injections; details: both partners purified

Binder: B1
- stoichiometry N [1]: 9

Binder: B2
- stoichiometry N [2]: 1
- Kd [3]: 28 ± 3 µM

From publication PMC7584215, ““The structure of the Type III secretion system export gate with CdsO, an ATPase lever arm”” (PLoS Pathogens, 2020)
